Reference: patent US20040138133A1 (Scripps Research, published 2004)
No end group written: not given here.

Target: T1, Nck (adapter protein) from detergent extracts of human endothelial cells (human, UniProt P16333 2-377, limits assumed)
T1 construct: Endogenous protein pulled down from a cell lysate
Experiment: peptide-agarose pull-down from human endothelial cell lysate, anti-Nck western blot
Method: Affinity Chromatography. PRO or control peptides containing an N-terminal cysteine were dissolved in about 1 ml of coupling buffer (50 mM tris pH 8.0, 5 mM EDTA) and about 0.5 ml at about 3 mg/ml peptide added to about 2 ml of activated thiol-Sepharose (Pharmacia). Samples were incubated at a temperature of about 4° C. overnight with 1% β-mercaptoethanol added to block unreacted sites. Beads were rinsed and stored at a temperature of about 4° C. Endothelial cell cultures in 15 cm dishes were extracted in about 1.0 ml of cold (about 4° C.), lysis buffer (20 mM pH 7.4 sodium phosphate, 100 mM NaCl, 1% Triton X-100, 10 mM NaF, 2 mM EDTA, 1 mM sodium orthovanadate, 1 mM PMSF, 10 μg/ml each of leupeptin and aprotinin). The extracts were centrifuged for about 10 minutes at top speed in a microfuge and the supernatants were then removed. A 0.5 ml sample of each extract was incubated with about 10 μl of packed beads for about 1 hour, with rotation at a temperature of about 4° C. The beads were rinsed with lysis buffer (about 4×0.5 ml) and dissolved in SDS sample buffer (about 0.04 ml). Samples were analyzed by SDS PAGE on 10% gels and immunoblotting with anti-NCK (Santa Cruz) and HRP-protein A as secondary, and then were developed and detected using enhanced chemiluminescence (ECL kit, Amersham). […]

binding result: no binding
Binder: KAGAPPMRNTSTMC (also: C-terminal Cys coupled to thiol-Sepharose (agarose) beads, also called mutant peptide)
